This test concerns the target GFP-tagged SARS-CoV N protein, full length (SARS-CoV, UniProt P59595 1-422). The experiment in a line: co-immunoprecipitation on Flag-tagged MASP-2 region beads, anti-GFP immunoblot. On the technique in general: In western blotting, separated proteins are transferred to a membrane and probed.

GFP-tagged SARS-CoV N protein, full length, sequence (P59595 whole entry): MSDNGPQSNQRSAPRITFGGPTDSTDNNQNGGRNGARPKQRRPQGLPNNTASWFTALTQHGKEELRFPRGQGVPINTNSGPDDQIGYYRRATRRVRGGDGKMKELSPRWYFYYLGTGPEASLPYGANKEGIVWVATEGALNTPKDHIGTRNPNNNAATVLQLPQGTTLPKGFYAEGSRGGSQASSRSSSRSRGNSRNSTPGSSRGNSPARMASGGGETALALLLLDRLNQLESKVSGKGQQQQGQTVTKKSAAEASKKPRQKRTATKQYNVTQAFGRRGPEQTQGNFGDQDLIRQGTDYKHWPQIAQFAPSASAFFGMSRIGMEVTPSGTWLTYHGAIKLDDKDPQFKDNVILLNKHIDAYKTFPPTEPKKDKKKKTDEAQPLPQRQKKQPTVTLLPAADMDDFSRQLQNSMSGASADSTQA

B1: Flag-tagged MASP-2 N-terminal CUB1-EGF-CUB2 region (other, UniProt O00187 16-296, looked up, not shown: small tags and cut ends)
chain: TPLGPKWPEPVFGRLASPGFPGEYANDQERRWTLTAPPGYRLRLYFTHFDLELSHLCEYDFVKLSSGAKVLATLCGQESTDTERAPGKDTFYSLGSSLDITFRSDYSNEKPFTGFEAFYAAEDIDECQVAPGEAPTCDHHCHNHLGGFYCSCRAGYVLHRNKRTCSALCSGQVFTQRSGELSSPEYPRPYPKLSSCTYSISLEEGFSVILDFVESFDVETHPETLCPYDFLKIQTDREEHGPFCGKTLPHRIETKSNTVTITFVTDESGDHTGWKIHYTST
notes: domain: CUB1-EGF-CUB2
On to B1, for which the binding result is listed as “no binding”.

(Values after patent publication US20230158060A1 (INFLARX, published 2023).)
